Paper PMC7717961, “O-GlcNAcylation Suppresses the Ion Current IClswell by Preventing the Binding of the Protein ICln to α-Integrin” (Frontiers in Cell and Developmental Biology, 2020)

B1: ICln: 100 μM PUGNAc plus 5 mM glucosamine (protein)
parent chain: MSFLKSFPPPGPAEGLLRQQPDTEAVLNGKGLGTGTLYIAESRLSWLDGSGLGFSLEYPTISLHALSRDRSDCLGEHLYVMVNAKFEEESKEPVADEEEEDSDDDVEPITEFRFVPSDKSALEAMFTAMCECQALHPDPEDEDSDDYDGEEYDVEAHEQGQGDIPTFYTYEEGLSHLTAEGQATLERLEGMLSQSVSSQYNMAGVRTEDSIRDYEDGMEVDTTPTVAGQFEDADVDH
B2: ECFP-ICln Ser67Ala (natural protein, UniProt P54105 1-237, looked up)
chain: MSFLKSFPPPGPAEGLLRQQPDTEAVLNGKGLGTGTLYIAESRLSWLDGSGLGFSLEYPTISLHALARDRSDCLGEHLYVMVNAKFEEESKEPVADEEEEDSDDDVEPITEFRFVPSDKSALEAMFTAMCECQALHPDPEDEDSDDYDGEEYDVEAHEQGQGDIPTFYTYEEGLSHLTAEGQATLERLEGMLSQSVSSQYNMAGVRTEDSIRDYEDGMEVDTTPTVAGQFEDADVDH
notes: ICln with Ser67Ala, made by site-directed mutagenesis of the vector with the wild-type ICln cDNA; also called Ser67Ala ICln; source: NIH/3T3, transfected for 48 h, in fixed cells; not shown: ECFP, N-terminal, kept

Key:
[1] = patch clamp, IClswell in wild-type ICln-transfected cells; conditions: control: vehicle (0.1% DMSO plus 5 mM D-glucose)
[2] = molecular target: T1, integrin αIIbshort-EYFP (amino acids 987-1039 of the human integrin αIIb chain fused to EYFP) (human, UniProt P08514-1 987-1039); test: FRET or BRET; acceptor photobleaching FRET in fixed NIH/3T3 cells transfected for 48 h; donor ECFP-ICln, acceptor αIIbshort-EYFP; FRET efficiency in three-four plasma membrane ROIs of each cell; O-GlcNAcylation left unmodified, increased with 100 μM PUGNAc plus 5 mM glucosamine for 1 h, or reduced by co-transfection of OGA-L; conditions: partners not purified
T1 construct: human integrin αIIb chain, amino acids 987-1039 of NP_000410.2 (integrin αIIbshort); also called αIIbs-EYFP; αIIb integrin; source: NIH/3T3, transfected for 48 h, in fixed cells; not shown: EYFP, C-terminal, kept
T1 sequence (P08514 987-1039): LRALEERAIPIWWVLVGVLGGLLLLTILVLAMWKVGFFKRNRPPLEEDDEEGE

| Binder | other: channel current, other: % variation of current at +100 mV [1] | FRET efficiency relative to wild-type ICln [2] |
| --- | --- | --- |
| B1 | decreases |  |
| B2 |  | ~3 fold |
